Source: the supplement of paper PMC9112550, “Optimization of the antimicrobial peptide Bac7 by deep mutational scanning” (BMC Biology, 2022)

What follows are sequences tested on Escherichia coli TOP10 (assay: shrunken log2 fold change of peptide-encoding DNA abundance (4.5 h post-induction vs induction); higher = less antimicrobial activity (less host growth inhibition)). Conditions: time post-induction: 4.5 h; library: site-saturation at positions 5, 18, 19, 20.
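Also: peptides expressed intracellularly from a pBAD plasmid library in pooled LB shake-flask culture, induced with 0.3% L-arabinose, DNA abundance read by NGS, three biological replicates, DESeq2 with apeglm shrinkage.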

First: RRIRCRPPRLPRPRPRPREQPRP
Second: RRIRKRPPRLPRPRPRPYRLPRP
The “shrunken log2 fold change” value of the first is higher: 0.312 for the first, -0.212 for the second.

Compared with RRIRERPPRLPRPRPRPTDSPRP, RRIRTRPPRLPRPRPRPVHKPRP is lower in “shrunken log2 fold change” value: 0.0161 for the first, -0.285 for the second.

RRIRPRPPRLPRPRPRPAHDPRP and RRIRQRPPRLPRPRPRPVWHPRP are within 0.2 log units of each other in “shrunken log2 fold change” value: 6.73e-05 for the first, 0.0663 for the second.

Going from RRIRDRPPRLPRPRPRPEGKPRP to RRIRERPPRLPRPRPRPTIDPRP, the “shrunken log2 fold change” value falls from -0.0117 to -0.227.

Going from RRIRKRPPRLPRPRPRPWGEPRP to RRIRPRPPRLPRPRPRPIAMPRP, the “shrunken log2 fold change” value falls from 0.539 to 0.0793.

First: RRIRTRPPRLPRPRPRPGQMPRP
Second: RRIRLRPPRLPRPRPRPWWTPRP
The “shrunken log2 fold change” value of the first is higher: 0.0303 for the first, -0.312 for the second.

RRIRLRPPRLPRPRPRPKSWPRP and RRIRKRPPRLPRPRPRPEMYPRP are within 0.2 log units of each other in “shrunken log2 fold change” value: 0.176 for the first, 0.214 for the second.

Compared with RRIRRRPPRLPRPRPRPDCGPRP, RRIRHRPPRLPRPRPRPCMYPRP is lower in “shrunken log2 fold change” value: 0.16 for the first, -0.0819 for the second.

Compared with RRIRTRPPRLPRPRPRPHSCPRP, RRIRCRPPRLPRPRPRPIVFPRP is lower in “shrunken log2 fold change” value: -0.0159 for the first, -0.31 for the second.

Going from RRIRGRPPRLPRPRPRPTPSPRP to RRIRPRPPRLPRPRPRPGEKPRP, the “shrunken log2 fold change” value falls from 0.954 to -0.0882.

Going from RRIRWRPPRLPRPRPRPHSPPRP to RRIRRRPPRLPRPRPRPTVEPRP, the “shrunken log2 fold change” value rises from -0.09 to 1.39.

Going from RRIRDRPPRLPRPRPRPPFQPRP to RRIRRRPPRLPRPRPRPSKWPRP, the “shrunken log2 fold change” value falls from 0.193 to -0.149.

RRIRQRPPRLPRPRPRPRVLPRP and RRIRMRPPRLPRPRPRPWNAPRP are within 0.2 log units of each other in “shrunken log2 fold change” value: -0.0985 for the first, -0.0284 for the second.

Going from RRIRLRPPRLPRPRPRPVIFPRP to RRIRFRPPRLPRPRPRPRLPPRP, the “shrunken log2 fold change” value rises from -0.141 to 1.13.

Going from RRIRGRPPRLPRPRPRPGGFPRP to RRIRYRPPRLPRPRPRPYPSPRP, the “shrunken log2 fold change” value falls from 0.819 to -0.248.

RRIRARPPRLPRPRPRPHSHPRP and RRIRHRPPRLPRPRPRPPHFPRP are within 0.2 log units of each other in “shrunken log2 fold change” value: 0.144 for the first, 0.297 for the second.

Going from RRIRSRPPRLPRPRPRPHFMPRP to RRIRFRPPRLPRPRPRPCPSPRP, the “shrunken log2 fold change” value rises from -0.48 to -0.0894.

RRIRWRPPRLPRPRPRPQDVPRP and RRIRERPPRLPRPRPRPKFIPRP are within 0.2 log units of each other in “shrunken log2 fold change” value: -0.0384 for the first, -0.144 for the second.

First: RRIRFRPPRLPRPRPRPCSQPRP
Second: RRIRTRPPRLPRPRPRPILIPRP
The “shrunken log2 fold change” value of the first is higher: 0.0319 for the first, -0.485 for the second.

First: RRIRHRPPRLPRPRPRPIRKPRP
Second: RRIRNRPPRLPRPRPRPCFVPRP
The “shrunken log2 fold change” value of the first is lower: -0.583 for the first, -0.147 for the second.

RRIRVRPPRLPRPRPRPNMRPRP and RRIRLRPPRLPRPRPRPWYSPRP are within 0.2 log units of each other in “shrunken log2 fold change” value: -0.124 for the first, -0.103 for the second.

First: RRIRGRPPRLPRPRPRPDIYPRP
Second: RRIRVRPPRLPRPRPRPHLDPRP
The “shrunken log2 fold change” value of the first is higher: 1.05 for the first, 0.0818 for the second.

RRIRNRPPRLPRPRPRPKLIPRP and RRIRSRPPRLPRPRPRPMTAPRP are within 0.2 log units of each other in “shrunken log2 fold change” value: -0.0332 for the first, -0.0379 for the second.

First: RRIRARPPRLPRPRPRPLKIPRP
Second: RRIRYRPPRLPRPRPRPMRTPRP
The “shrunken log2 fold change” value of the first is lower: -0.165 for the first, 0.176 for the second.

Going from RRIRERPPRLPRPRPRPEKIPRP to RRIRRRPPRLPRPRPRPTPSPRP, the “shrunken log2 fold change” value rises from 0.0141 to 0.772.

RRIRSRPPRLPRPRPRPWWYPRP and RRIRNRPPRLPRPRPRPLNLPRP are within 0.2 log units of each other in “shrunken log2 fold change” value: -0.0611 for the first, -0.25 for the second.

Compared with RRIRFRPPRLPRPRPRPQCPPRP, RRIRWRPPRLPRPRPRPSYKPRP is lower in “shrunken log2 fold change” value: -0.225 for the first, -0.479 for the second.

RRIRFRPPRLPRPRPRPRNPPRP and RRIRVRPPRLPRPRPRPQCWPRP are within 0.2 log units of each other in “shrunken log2 fold change” value: 0.118 for the first, 0.198 for the second.

Compared with RRIRWRPPRLPRPRPRPFCFPRP, RRIRCRPPRLPRPRPRPFQCPRP is lower in “shrunken log2 fold change” value: 0.449 for the first, -0.296 for the second.

RRIRARPPRLPRPRPRPNMPPRP and RRIRIRPPRLPRPRPRPCGMPRP are within 0.2 log units of each other in “shrunken log2 fold change” value: -0.0377 for the first, 0.0729 for the second.
